Measured values: patent US20050182242A1, “Global analysis of protein activities using proteome chips” (priority 2001, published 2005)

B1: KCS1: yeast GST-HisX6 fusion protein on proteome chip (protein, UniProt Q12494 1-1050, looked up)
Inositol hexakisphosphate …: MDTSHEIHDKIPDTLREQQQHLRQKESEGCITTLKDLNVPETKKLSSVLHGRKASTYLRIFRDDECLADNNNGVDSNNGGSVTCADKITRSEATPKSVPEGLQVSEKKNNPDTLSSSLSSFILSNHEEPAIKPNKHVAHRNNITETGQGSGEDIAKQQSHQPQVLHHQTSLKPIQNVDEGCISPKSTYQESLHGISEDLTLKPVSSATYYPHKSKADSGYEEKDKMENDIDTIQPATINCASGIATLPSSYNRHTFKVKTYSTLSQSLRQENVNNRSNEKKPQQFVPHSESIKEKPNTFEQDKEGEQADEEEDEGDNEHREYPLAVELKPFTNRVGGHTAIFRFSKRAVCKALVNRENRWYENIELCHKELLQFMPRYIGVLNVRQHFQSKDDFLSDLDQENNGKNDTSNENKDIEVNHNNNDDIALNTEPTGTPLTHIHSFPLEHSSRQVLEKEHPEIESVHPHVKRSLSSSNQPSLLPEVVLNDNRHIIPESLWYKYSDSPNSAPNDSYFSSSSSHNSCSFGERGNTNKLKRRDSGSTMINTELKNLVIREVFAPKCFRRKRNSNTTTMGNHNARLGSSPSFLTQKSRASSHDASNTSMKTLGDSSSQASLQMDDSKVNPNLQDPFLKKSLHEKISNALDGSHSVMDLKQFHKNEQIKHKNSFCNSLSPILTATNSRDDGEFATSPNYISNAQDGVFDMDEDTGNETINMDNHGCHLDSGKNMIIKSLAYNVSNDYSHHDIESITFEETSHTIVSKFILLEDLTRNMNKPCALDLKMGTRQYGVDAKRAKQLSQRAKCLKTTSRRLGVRICGLKVWNKDYYITRDKYFGRRVKVGWQFARVLARFLYDGKTIESLIRQIPRLIKQLDTLYSEIFNLKGYRLYGASLLLMYDGDANKSNSKRKKAANVKVNLIDFARCVTKEDAMECMDKFRIPPKSPNIEDKGFLRGVKSLRFYLLLIWNYLTSDMPLIFDEVEMNDMISEEADSNSFTSATGSKINFNSKWDWLDEFDKEDEEMYNDPNSKLRQKWRKYELIFDAEPRYNDDAQVSD
modifications: GST-HisX6 tag
notes: yeast GST-HisX6 fusion protein on proteome chip
B2: MIS1: yeast GST-HisX6 fusion protein on proteome chip (protein, UniProt P09440 35-975, looked up)
C-1-tetrahydrofolate …: YHILSGRKLAQSIREKANDEIQAIKLKHPNFKPTLKIIQVGARPDSSTYVRMKLKASKDSNVDCIIEKLPAEITEVELLKKISDINDDDSIHGLLIQLPLPRHLDETTITNAVDFKKDVDGFHRYNAGELAKKGGKPYFIPCTPYGCMKLLEEAHVKLDGKNAVVLGRSSIVGNPIASLLKNANATVTVCHSHTRNIAEVVSQADIVIAACGIPQYVKSDWIKEGAVVIDVGINYVPDISKKSGQKLVGDVDFDSVKEKTSYITPVPGGVGPMTVAMLVSNVLLAAKRQFVESEKLPVIKPLPLHLESPVPSDIDISRAQSPKHIKQVAEELGIHSHELELYGHYKAKISPNIFKRLESRENGKYVLVAGITPTPLGEGKSTTTMGLVQALSAHLGKPSIANVRQPSLGPTLGVKGGAAGGGYAQVIPMDEFNLHLTGDIHAISAANNLLAAAIDTRMFHEATQKNDSTFYKRLVPRKKGIRKFTPSMQRRLKRLDIEKEDPDALTPEEVKRFARLNINPDTITIRRVVDINDRMLRQITIGEAATEKGFTRTTGFDITVASELMAILALSKSLHEMKERIGRMVIGADYDNKPVTVEDIGCTGALTALLRDAIKPNLMQTLEGTPVMVHAGPFANISIGASSVIADLMALKLVGSEKNPLNDKNIHEPGYVVTEAGFDFAMGGERFFDIKCRSSGLVPDAVVLVATVRALKSHGGAPNVKPGQSLPKEYTEENIDFVAKGVSNLVKQIENIKTFGIPVVVAINRFETDSQAEIEVIKKAALNAGASHAVTSNHWMEGGKGAVELAHAVVDATKEPKNFNFLYDVNSSIEDKLTSIVQKMYGGAKIEVSPEAQKKIDTYKKQGFGNLPICIAKTQYSLSHDPSLKGVPRGFTFPIRDVRASIGAGYLYALAAEIQTIPGLSTYAGYMAVEVDDDGEIEGLF
modifications: GST-His6 fusion tag
notes: as for B1
B3: HEM14: yeast GST-HisX6 fusion protein on proteome chip (protein, UniProt P40012 1-539, looked up)
Protoporphyrinogen oxidase: MLLPLTKLKPRAKVAVVGGGVSGLCFTYFLSKLRPDVEITLFESQNRTGGWIYSCNTRDMSGNPIMLEKGPRTLRGVSDGTVLIMDTLKDLGKEAVIQSIDKGCIADKKFLLDPSDKLVQVPNSISTTVKFLLNPLGKGLITGMMGEWFRKKSPHPGQDESVESICDRRFGNNYISNNMISALLRGIYGDDVSLLSAKRTFKKIYYNELKHGSNTQAMIDNMRGKSRSKKTENLHQSLTGCLNDYSNAFGKDRSKLLDLSNTLKKYPMLGLAGGLETFPKIVRNALNEFKNVKIVTGNPVTQIMKRPANETTIGLKAKSGDQYETFDHLRLTITPPKIAKLLPKDQNSLSKLLDEIQSNTIILVNYYLPNKDVIDADLQGFGYLVPKSNKNPGKLLGVIFDSVIERNFKPLFDKLSTNPNALNKYTKVTAMIGGCMLNEHGVPVVPSREVTINAVKDALNNHLGISNKDLEAGQWEFTIADRCLPRFHVGYDAWQERAERKLQESYGQTVSVGGMGFSRSPGVPDVIVDGFNDALQLSK
modifications: GST-HisX6 tag
notes: as for B1
B4: GAD1: yeast GST-HisX6 fusion protein on proteome chip (protein, UniProt Q04792 1-585, looked up)
Glutamate decarboxylase: MLHRHGSKQKNFENIAGKVVHDLAGLQLLSNDVQKSAVQSGHQGSNNMRDTSSQGMANKYSVPKKGLPADLSYQLIHNELTLDGNPHLNLASFVNTFTTDQARKLIDENLTKNLADNDEYPQLIELTQRCISMLAQLWHANPDEEPIGCATTGSSEAIMLGGLAMKKRWEHRMKNAGKDASKPNIIMSSACQVALEKFTRYFEVECRLVPVSHRSHHMLDPESLWDYVDENTIGCFVILGTTYTGHLENVEKVADVLSQIEAKHPDWSNTDIPIHADGASGGFIIPFGFEKEHMKAYGMERWGFNHPRVVSMNTSGHKFGLTTPGLGWVLWRDESLLADELRFKLKYLGGVEETFGLNFSRPGFQVVHQYFNFVSLGHSGYRTQFQNSLFVARAFSFELLNSSKLPGCFEIVSSIHESIENDSAPKSVKDYWEHPQAYKPGVPLVAFKLSKKFHEEYPEVPQAILSSLLRGRGWIIPNYPLPKATDGSDEKEVLRVVFRSEMKLDLAQLLIVDIESILTKLIHSYEKVCHHIELASEQTPERKSSFIYEMLLALASPQDDIPTPDEIEKKNKLKETTTRNYRGTC
modifications: GST-His6 tag
notes: as for B1

system: PI(3,4,5)P3 liposomes; test: Yeast proteome chip probed with PI(3,4,5)P3 liposomes; conditions: liposome binding signal on yeast proteome chip, Cy3-streptavidin detection

Row | Molecule | PI(3, 4, 5)P3
1 | B1 | 36.22
2 | B2 | 43.65
3 | B3 | 8.55

system: PI(3)P liposomes; test: Yeast proteome chip probed with PI(3)P liposomes; conditions: liposome binding signal on yeast proteome chip, Cy3-streptavidin detection
Excerpt: To identify PI-binding proteins in yeast, liposomes were used as probes because the liposome provides the most relevant physiological condition to assay the interactors. Six types of liposomes were used. Each contains phosphatidylcholine (“PC”) with 1% (w/w) N-(biotinoyl)-1,2-dihexadecanoyl-sn-glycero-3-phosphoethanolamine, triethylammonium salt (biotin DHPE). The biotinylated lipid serves as a label that can be detected by Cy3-streptavidin (21). In addition to PC, the five other liposomes contain either 5% (w/w) PI(3)P, PI(4)P, PI(3,4)P2, PI(4,5)P2, or PI(3,4,5)P3 (FIG. 3A).
The protein-liposome interaction was assayed as follows. Appropriate amounts of each lipid in chloroform were mixed and dried under nitrogen. The lipid mixture was resuspended in TBS buffer by vortexing. The liposomes were created by sonication. Blocked proteome chips were washed three to five times in PBS buffer, and the extra liquid on the glass surface was removed by tapping the slides vertically on a KIMWIPE™. 200 μl of liposome solution was added to the proteome chip and immediately covered by a hydrophobic plastic cover slip (GRACE BIO-LAB™, USA). After trapped air bubbles were removed, the chip was incubated in a humidity chamber at RT for one hour. To remove the cover slip, the chip was immersed into large volume of PBS buffer (50 ml), so that the slip would float away. The chip was then moved to a second PBS bath (>50 ml) and washed 3×5 min with shaking at RT. After removing extra liquid on the surface of the chip, about 100 μl of Cy3 or Cy5 conjugated streptavidin (PIERCE™, USA; 1:2000 to 1:4000 dilution) was added to the surface and covered by a hydrophobic plastic cover slip (GRACE BIO-LABS™, USA). The chip was incubated for greater than 30 min in the dark at RT. The chip was then washed as described above. To completely remove the liquid on the chip, the chip was spun to dryness at 1500-2000 rpm for 5-10 min at RT.
• 1. S. Fields, Y. Kohara, D. J. Lockhart, Proc. Natl. Acad. Sci. 96, 8825 (1999); A. Goffeau et al., Science 274, 563 (1996). • 2 P. Ross-Macdonald et al., Nature 402, 413 (1999); J. L., DeRisi, V. R. Iyer, P. O. Brown, Science 278, 680 (1997); E. A. Winzeler et al., Science 285, 901 (1999). P. Uetz et al., Nature 403, 623 (2000); T. Ito et al., Proc. Natl. Acad. Sci. USA. 97, 1143 (2000) • 3 H. Zhu, M. Snyder, Curr. Opin. Chem. Biol. 5, 40 (2001). • 4 M. R. Martzen et al., Science 286, 1153 (1999). • 5 H. Zhu et al., Nat. Genet. 26, 283 (2000). • 6 G. MacBeath, S. L. Schreiber, Science 289, 1760 (2000). • 7 A. Caveman, J. Cell Sci. 113, 3543 (2000). • 8 P. Arenkov et al., Anal. Biochem 278, 123 (2000). • 9 D. A. Mitchell, T. K. Marshall, R. J. Deschenes, Yeast 9, 715 (1993). The expression vector pEGH was created by inserting an RGS-HisX6 epitope tag between the GST gene and the polycloning site of pEG(KG). The yeast ORFs were cloned using the strategy described previously (5), except every step was done in a 96-well format. Plasmid DNAs confirmed by DNA sequencing were reintroduced into both yeast (Y258) and E. coli (DH5a). […] 0.1 mM calcium was present in buffers in all subsequent steps. The chip was washed three times with PBS at RT. Cy3-conjugated streptavidin (Jackson IR, USA) (1:5000 dilution) was added to the chip and incubated for 30 min at RT. After extensive washing, the chip was spun dry and scanned using a microarray scanner; the data was subsequently acquired with the GENEPIX™ array densitometry software (Axon, USA). • 12 S. S. Hook, A. R. Means, Annu. Rev. Pharmacol. Toxicol.41, 471 (2001). • 13 M. S. Cyert, R. Kunisawa, D. Kaim, J. Thorner, Proc. Natl. Acad. Sci. USA 88, 7376 (1991). • 14 D. A. Stirling, K. A. Welch, M. J. Stark, EMBO J. 13, 4329 (1994). • 15 F. Bohl, Kruse, EMBO J. 19, 5514 (2000); E. Bertrand et al., Mol. Cell 2, 437 (1998). • 16 D. C. Winter, E. Y. Choe, R. Li, Proc. Nat. Acad Sci. USA 96, 7288 (1999). • 17 C.

Row | Molecule | PI(3)P
4 | B1 | 0.00
5 | B2 | 3.50
6 | B4 | 51.25
7 | B3 | 1.00

system: phosphatidylcholine (PC) liposomes; test: Yeast proteome chip probed with PC liposomes; conditions: liposome binding signal on yeast proteome chip, Cy3-streptavidin detection
Outline: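 Yeast proteome chips incubated 1 h at RT with sonicated liposomes of PC containing 1% (w/w) biotin-DHPE, plus 5% (w/w) of the indicated phosphoinositide where applicable. After PBS washes, bound liposomes detected with Cy3- or Cy5-streptavidin (>30 min, RT, dark) and fluorescence scanned.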

Row | Molecule | PC
8 | B1 | 42.85
9 | B2 | 71.02
10 | B4 | 24.36
11 | B3 | 38.15

system: PI(4)P liposomes; test: Yeast proteome chip probed with PI(4)P liposomes; conditions: liposome binding signal on yeast proteome chip, Cy3-streptavidin detection

Row | Molecule | PI(4)P
12 | B1 | 35.27
13 | B2 | 65.32
14 | B4 | −1.96
15 | B3 | 16.11

system: PI(3,4)P2 liposomes; test: Yeast proteome chip probed with PI(3,4)P2 liposomes; conditions: liposome binding signal on yeast proteome chip, Cy3-streptavidin detection

Row | Molecule | PI(3, 4)P2
16 | B1 | 60.91
17 | B2 | 86.34
18 | B3 | 21.03

system: PI(4,5)P2 liposomes; test: Yeast proteome chip probed with PI(4,5)P2 liposomes; conditions: liposome binding signal on yeast proteome chip, Cy3-streptavidin detection

Row | Molecule | PI(4, 5)P2
19 | B4 | 11.54
